# Laboratory results reported in patent US20020022718A1, “Genes identified as required for proliferation of E. coli” (priority 1999, published 2002).
# Tested on: Klebsiella pneumoniae
# Assay: Growth inhibition by induced E. coli antisense RNA in Klebsiella pneumoniae
# Assay type: cell-based
# Parameters: key: +: a positive in Table V below means that at least 10 fold more cells were required to observe a colony on the induced plate than on the non-induced plate; −: If there was no effect of antisense RNA expression in a microorganism, the clone is minus in Table V below
# Details: antisense RNA expression induced with IPTG, serial dilution plating
# Experimental: To study the effects of transcriptional induction in liquid medium, growth curves were carried out by back diluting cultures 1:200 into fresh media with or without 1 mM IPTG and measuring the OD450 every 30 minutes (min). To study the effects of transcriptional induction on solid medium, 10^2, 10^3, 10^4, 10^5, 10^6, 10^7 and 10^8 fold dilutions of overnight cultures were prepared. Aliquots of from 0.5 to 3 μl of these dilutions were spotted on selective agar plates with or without 1 mM IPTG. After overnight incubation, the plates were compared to assess the sensitivity of the clones to IPTG.
# Molecule No. EcXA190, encoding a portion of the b3052 gene of Escherichia coli, was either transformed directly into Enterobacter cloacae, Salmonella typhimurium and/or Klebsiella pneumoniae or subcloned into an expression vector functional in these species and the subclones transformed into these organisms. Suitable expression vectors are well known in the art. These expression vectors were introduced into Enterobacter cloacae, Salmonella typhimurium and/or Klebsiella pneumoniae cells that were then assayed for growth inhibition according to the method of Example 1. After growth in liquid culture, cells were plated at various serial dilutions and a score determined by calculating the log difference in growth for INDUCED vs. UNINDUCED antisense RNA expression as determined by the maximum 10 fold dilution at which a colony was observed. If there was no effect of antisense RNA expression in one organism, the clone is given a score of zero “0” in that organism. In contrast, a score of “8” means that 10^8 times more cells were required to observe a colony formed on the induced state than in the non-induced state under the conditions used and in that organism.
# In addition, the above methods were validated using other antisense nucleic acids which inhibit the growth of E. coli which were identified using methods similar to those described above. Expression vectors which inhibited growth of E. coli upon induction of antisense RNA expression with IPTG were transformed directly into Enterobacter cloacae, Klebsiella pneumonia or Salmonella typhimurium. The transformed cells were then assayed for growth inhibition according to the method of Example 1. After growth in liquid culture, cells were plated at various serial dilutions and a score determined by calculating the log difference in growth for INDUCED vs. UNINDUCED antisense RNA expression as determined by the maximum 10 fold dilution at which a colony was observed. If there was no effect of antisense RNA expression in a microorganism, the clone is minus in Table V below. In contrast, a positive in Table V below means that at least 10 fold more cells were required to observe a colony on the induced plate than on the non-induced plate under the conditions used and in that microorganism.
row,Molecule,"Sensitivity of K. pneumoniae to antisense nucleic acid (growth inhibition, induced vs. uninduced)"
1,"EcXA141: antisense clone insert to E. coli rfc (nucleic acid, listed as Escherichia coli) antisense: CGATTATAGGGCTGACCAAATACATGGATAGATAATATGCCATCCCCCCAGGCAGTCCACGTAAAAAGAGCATATACAAGGAGAATAGAACACCTACAGCTGTAATAAGATAAACATAATGTTTTACTCTATTAACACCTACGATGAATGCATAAGAGATGATAACCATAAAGACAATTTGCTTACCAGTATTCAGTATAATTGCAAAGATGAATACAATAAAAACAAGTAAAGTAAATGTTTTACTTACCTTTGTATTAGTAAATTTTTTA",−
2,"EcXA153: antisense clone insert to E. coli yjbI (nucleic acid, listed as Escherichia coli) antisense: CAACATCTCATGTCTGGATTTGTAGATATACGTGGAATTCCAATTGGTATCTTTTGTAGGATTCAACATATCATGTAAGCGCTGGGAGCTTACCACCATAACTGGCCCATCATCGACTGAGGAGAACAGGATAAAGATATTATCGTTTCGTGTTAATTCATTCGTGTTAAAGGTTCTTAAATTATCTTCAGTTTCTATAAATATAGG",−
3,"EcXA148: antisense clone insert to E. coli rffM (nucleic acid, listed as Escherichia coli) antisense: GCAAATGTTTTCGTAATTCAGGAGAAATGGCAAATAAAGCATTAAAAATTTGAATGCTTTGTGTAATAAAAAAGCAGACAGGCGACGGAGTGACCACTCCGTCGCTTTACAAAGAGAGGAAAATCATAGGTTGCCGGTGTAGTGCCAGCGTAAATAACGCA",−
4,"EcXA145: antisense clone insert to E. coli thyA (nucleic acid, listed as Escherichia coli) antisense: TCGAAGAATTTAACGGAGGGTAAAAAAACCGACGCACACTGGCGTCGGCTCTGGCAGGATGTTTCGTAATTAGATAGCCACCGGCGCTTTAATGCCCGGATGCGGATCGTAGCCTTCAATCTCAAAGTCTTCGAAACGGTAGTCGAAGATGGATTCGGGTTTACGTTTGATAATCAACTTCGGC",−
5,"EcXA154: antisense clone insert to E. coli b1983 (nucleic acid, listed as Escherichia coli) antisense: TTCTGTAATCAGAAAAAGAAGAACTGGAATTTTAATAAATATTATTTCTCTGGGAACGGGGGGGTATAATCAATATGACGAGTTGAATATTATATTTTTTATAAGAATTATATGAGATTAAAGAAATCTGCCGTAAAGACAGATTTCTTTAAAAGATAATTAGAGATTTGCGACGTTATGATAAACTTTTTGTACATCGTCGTCATCTTCAAG",−
6,"EcXA157: antisense clone insert to E. coli rpsC, rplV (nucleic acid, listed as Escherichia coli) antisense: TCCTTAGTCAGGTACTGACGTACTTTAAAATCGCTGTCCAGGTTGTCAGCGAATTCTTTGGTGTTCGCAAACCAGGTAGAGTTCCATGGTTTTACAATACCCAGGCGAATACCATTAGGATGTACTTTCTGACCCATTGCTAGTCTCCAGAGTCTCAGCGATCGGACACAACCACAGTGATGTGGCTGGTG",−
7,"EcXA143: antisense clone insert to E. coli b2846 (nucleic acid, listed as Escherichia coli) antisense: AACGTAAAACTTTACGTAAATTAACATGGTTAACATTTATGCCACTATTGTTTGTAAATTCATATTTCGTAATGCTTCTGAATTTTTCGTGTGATGGTTTTAAATACTATGGTGTTTACTCTTGAGGGGACGGCCTATTTATAAAATACGGACATTTCAATAAATGCCCGTATAAACAGAGTATGATTCTGGCTGGTCGTTGAGTATCAATGTTGGACCGAATGTGAACGAATAAATAATTCGTTTATTTTACCACCCATTCTCTTTTCGATTCGTTGCTTGTACGCGTAGATGCTACGGATATCCATATCCAGAACTTCAGCAATCTGATATGGATTATAACCAGAAACCATATACCCCATTATGGTGAATTCCATCTGAGTTAATGT",−
8,"EcXA146: antisense clone insert to E. coli pstB (nucleic acid, listed as Escherichia coli) antisense: GTAGAAGTTCAAATTACGAACCTGAATTTTACTCGGGGCAGTTTCAACCATACTCATTGCAATCTTTTCCTCATCGTGCCTGATGCACTTCGCTAATCAGGCTTACCGTAGGCCGGATCAGG",−
9,"EcXA151: antisense clone insert to E. coli dctA (nucleic acid, listed as Escherichia coli) antisense: TGTCGAGCATACGCGGCAGCGCCGACTCGGAAGATGAAGTCCCCAGTACAATCAGCAGTTCTTCACGGATGTAGCGGATAAATTTGAAGATACTGAAACCAGTCGCTTTAGCGATTGAACCCAATACCAGCACCACAAACAGGATACAGGTAATGTAGAAACAGATAATCAGCTGCCCCAGTTGCACCAGTGTGCCGACGCCGTATTTACCGATGGTAAACGCCATTGCCCCGAACGCACCAATAGGTGCCAGA",−
10,"EcXA142: antisense clone insert to E. coli rpmJ, rpsM (nucleic acid, listed as Escherichia coli) antisense: TGCGATTACGGCATGCTTATGATCAGGAATGTTAATGCCTGCTATACGGGCCACTATGCACTCCTACTATTTAATATGTACGTTCCATGCTGAAAAGCCCGTTTTCAGGATACTCAAATGGAAACGCACAGACATACAAAAGATTGGCTGGCTAATCTAGCCAGCTCAACCCAACTTTGCAAGAAAAATATGCGAAAAAATCAGCCTTGGCGCTGTTTATGCTTCGGCTCGGCACTGCAAATCACACGGATGACA",−
11,"EcXA158: antisense clone insert to E. coli b2519 (nucleic acid, listed as Escherichia coli) antisense: GCTGGTGCCCGTTTTCCATGCCAGTGGGGCGACGCGCGGCAAGGCACTATCCGGCAAGGGTTGCGCTTCATCAGCCATAATCCGGCGAATGATCCACGCCGCCCCCGACGACATTAAAGGCCGTTCAAGCAGCGGATCGTCAGGCTGTAAGCGCAATTTGCCTGCCTTGCCGTGGCGAGCAAACGCGGTA",−
12,"EcXA150: antisense clone insert to E. coli spoT (nucleic acid, listed as Escherichia coli) antisense: CCGGGGCTGACGTGGGCGATAATCGGGTCGCCAGGAATAGGGCGGCAGCATTTCGCAAAGGTGATCAGCACGCCATCGGCACCTTTAATGGGCAGATGTCCGTGGCTTTGGGTTGCCGGTGGAATGGAGGCGTCCCCATGTTGCAGATTTTTCGCGACCACCACGCTCATTGCGTTACCA",−
13,"EcXA156: antisense clone insert to E. coli yihN (nucleic acid, listed as Escherichia coli) antisense: AAATAGACCGGCATACTTTCGTGCGGCAGCATAATCAACAGTACGAGCGCAGCGGTACTAATGATAAAGGTGTAGCATAGATATTTACTTGGCGATTTCAGGATCTTATCTGAAATCATGCCACCAATCGGTCCACCAATCATTTTCAGACAGT",−
14,"EcXA147: antisense clone insert to E. coli b1111 (nucleic acid, listed as Escherichia coli) antisense: TAAATTCCGCGTATAGCGTGGGCGCTTTGGCTCCGGTCGCTTCGACGAGGTCCGCAAGAGAAGTCGCTTCATAACCGTGTTGCCAGAACAATTTCATGGCCTTATCAAGCGCGGCATCCCTGTCGAACACTTTTGGGCGGCCACGGCTTTTTTTTACACATTG",−
15,"EcXA152: antisense clone insert to E. coli bcr (nucleic acid, listed as Escherichia coli, misc_feature (1)...(300): n = A,T,C or G, antisense clone insert to E. coli bcr) antisense: AGCTGATCGATGGTGTTTGCCAACGCACACGCCACCGCGGCGGCGGCAAACACCANCGTACCGCCGAGCACCACCGGCTTACGCCCGAAGCTGTCTGCCATCGGCCCGTAGATTAACTGCCCCAACGCAAAGCCCAGAATATAAGTACTGAGGGTCATCTGCGTACTGCCCGNCGGTACGCCAAACTGCGCTGAAATTACCGGTAGCGCGGGCAGATACATATCAATCGACAGCGGCATCAACATGGCCAGCAGGCCAAGGATAAAAACAATAGCAAACGACGAATGCTGTCGGGTGGTC",−
